These results are taken from publication PMC3232247.

The target of the assay is T1, RGSZ2 RH region (RGS box), recombinant, GST-free (murine).
T1 sequence (Q9QZB0 whole entry, looked up): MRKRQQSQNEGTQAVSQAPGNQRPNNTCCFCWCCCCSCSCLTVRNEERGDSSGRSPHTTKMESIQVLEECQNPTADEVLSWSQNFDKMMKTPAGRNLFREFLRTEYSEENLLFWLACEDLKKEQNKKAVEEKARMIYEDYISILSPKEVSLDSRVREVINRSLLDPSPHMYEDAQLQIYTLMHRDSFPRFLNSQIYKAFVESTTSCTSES

Regarding “SUMO1 (Small Ubiquitin-like MOdifier 1) (from UniProt P63165 1-97) (natural protein)”, the k cat of GTP hydrolysis by Gαi, single turnover, with RGSZ2 RH and free SUMO1 (4.0 with RH without SUMO1; 2.2 for Gαi alone) worked out at 0.0417 s⁻¹.
